These results are taken from patent publication US9802997B2, “Peptides and combination of peptides for use in immunotherapy against various tumors” (immatics biotechnologies GmbH, priority 2015, dated 2017).

In one assay the target is HLA-A*02:01 (Homo sapiens, UniProt P04439, D140Y/D185E/D98H/E176V/E277Q/G131W/G231S/I119V/I121R/I166T/I218V/L300P/L318F/N151K/N90K/P208A/P217A/Q86G/Q94H/R138H/R169H/T345S). Description: MHC binding assay (UV-ligand exchange, beta2m ELISA). The settings on record: binding to HLA-A*02:01, β2m ELISA. The method, boiled down:
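Binding capacity is expressed as the yield of UV-mediated ligand exchange, reflecting how well each peptide stabilizes peptide-receptive MHC. Stabilized complexes are read out by anti-β2m HRP ELISA (450 nm) after streptavidin capture, with refolded MLA-001 monomer standards for quantitation.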

Assay [1] relates to CD8+ T cells of healthy HLA-A*02 donors. Description: In vitro immunogenicity: in vitro T-cell priming with aAPCs loaded with peptide/MHC complexes and anti-CD28 antibody, pMHC multimer readout. To be noted: HLA-A*02 restricted peptides; percentage of positive wells among evaluable. The format is cell-based, human. The text has this: In order to obtain information regarding the immunogenicity of the TUMAPs of the present invention, the inventors performed investigations using an in vitro T-cell priming assay based on repeated stimulations of CD8+ T cells with artificial antigen presenting cells (aAPCs) loaded with peptide/MHC complexes and anti-CD28 antibody.
In order to perform in vitro stimulations by artificial antigen presenting cells loaded with peptide-MHC complex (pMHC) and anti-CD28 antibody, the inventors first isolated CD8+ T cells from fresh HLA-A*02 leukapheresis products via positive selection using CD8 microbeads (Miltenyi Biotec, Bergisch-Gladbach, Germany) of healthy donors obtained from the University clinics Mannheim, Germany, after informed consent. PBMCs and isolated CD8+ lymphocytes were incubated in T-cell medium (TCM) until use consisting of RPMI-Glutamax (Invitrogen, Karlsruhe, Germany) supplemented with 10% heat inactivated human AB serum (PAN-Biotech, Aidenbach, Germany), 100 U/ml Penicillin/100 μg/ml Streptomycin (Cambrex, Cologne, Germany), 1 mM sodium pyruvate (CC Pro, Oberdorla, Germany), 20 μg/ml Gentamycin (Cambrex). 2.5 ng/ml IL-7 (PromoCell, Heidelberg, Germany) and 10 U/ml IL-2 (Novartis Pharma, Nürnberg, Germany) were also added to the TCM at this step. Generation of pMHC/anti-CD28 coated beads, T-cell stimulations and readout was performed in a highly defined in vitro system using four different pMHC molecules per stimulation condition and 8 different pMHC molecules per readout condition.
The purified co-stimulatory mouse IgG2a anti human CD28 Ab 9.3 (Jung et al., 1987) was chemically biotinylated using Sulfo-N-hydroxysuccinimidobiotin as recommended by the manufacturer (Perbio, Bonn, Germany). Beads used were 5.6 μm diameter streptavidin coated polystyrene particles (Bangs Laboratories, Illinois, USA).
pMHC used for positive and negative control stimulations were A*0201/MLA-001 (peptide […] (SEQ ID NO. 289) from modified Melan-A/MART-1) and A*0201/DDX5-001 ([…] from DDX5, SEQ ID NO. 290), respectively.
800.000 beads/200 μl were coated in 96-well plates in the presence of 4×12.5 ng different biotin-pMHC, washed and 600 ng biotin anti-CD28 were added subsequently in a volume of 200 μl. Stimulations were initiated in 96-well plates by co-incubating 1×10^6 CD8+ T cells with 2×10^5 washed coated beads in 200 μl TCM supplemented with 5 ng/ml IL-12 (PromoCell) for 3 days at 37° C. Half of the medium was then exchanged by fresh TCM supplemented with 80 U/ml IL-2 and incubating was continued for 4 days at 37° C. This stimulation cycle was performed for a total of three times. For the pMHC multimer readout using 8 different pMHC molecules per condition, a two-dimensional combinatorial coding approach was used as previously described (Andersen et al., 2012) with minor modifications encompassing coupling to 5 different fluorochromes. Finally, multimeric analyses were performed by staining the cells with Live/dead near IR dye (Invitrogen, Karlsruhe, Germany), CD8-FITC antibody clone SK1 (BD, Heidelberg, Germany) and fluorescent pMHC multimers. For analysis, a BD LSRII SORP cytometer equipped with appropriate lasers and filters was used. Peptide specific cells were calculated as percentage of total CD8+ cells. Evaluation of multimeric analysis was done using the FlowJo software (Tree Star, Oregon, USA). In vitro priming of specific multimer+CD8+ lymphocytes was detected by comparing to negative control stimulations.

“157 (ILQDGQFLV; listed as Homo sapiens) [compound 157]”: in the assay with HLA-A*02:01, the “Peptide exchange (MHC class I binding score, peptide exchange yield)” value (shortened to “Peptide exchange”) is on record as “++ (≧20% = ++)”. Besides, the “Wells positive [%]” value in assay [1] is on record as “+ (<20% = +)”.

On to “257 (KLIDHQGLYL; listed as Homo sapiens) [compound 257]”, for which, in the assay with HLA-A*02:01, the “Peptide exchange” value is recorded as “+++ (≧50 = +++)”. For the same substance, in assay [1], the “Wells positive [%]” value was “+ (<20% = +)”.

For “17 (GLLPSAESIKL; listed as Homo sapiens) [compound 17]”, the “Peptide exchange” value in the assay with HLA-A*02:01 is listed as “++++ (≧75% = ++++)”. For the same substance, in assay [1], the “Wells positive [%]” value is on record as “+ (<20% = +)”.

Regarding “242 (KLQEEIPVL; listed as Homo sapiens) [compound 242]”, the “Peptide exchange” value in the assay with HLA-A*02:01 was “+++ (≧50 = +++)”. Also, the “Wells positive [%]” value in assay [1] is recorded as “+ (<20% = +)”.

In the case of “102 (GLYPVTLVGV; listed as Homo sapiens) [compound 102]”, in the assay with HLA-A*02:01, the “Peptide exchange” value is recorded as “+++ (≧50 = +++)”. Besides, the “Wells positive [%]” value in assay [1] is given as “+ (<20% = +)”.

For the substance “50 (ILLSVLHQL; listed as Homo sapiens) [compound 50]”, the “Peptide exchange” value with HLA-A*02:01 is “+++ (≧50 = +++)”. In addition, the “Wells positive [%]” value in assay [1] is listed as “+ (<20% = +)”.

For the substance “9 (SLITGQDLLSV; listed as Homo sapiens) [compound 9]”, the “Peptide exchange” value in the assay with HLA-A*02:01 is “+++ (≧50 = +++)”. The “Wells positive [%]” value in assay [1] is “+ (<20% = +)”.

In the case of “255 (FLMKNSDLYGA; listed as Homo sapiens) [compound 255]”, the “Peptide exchange” value in the assay with HLA-A*02:01 was “+++ (≧50 = +++)”. Also, the “Wells positive [%]” value in assay [1] is listed as “+ (<20% = +)”.

Regarding “233 (SLFESLEYL; listed as Homo sapiens) [compound 233]”, the “Peptide exchange” value with HLA-A*02:01 is “+++ (≧50 = +++)”. For the same substance, in assay [1], the “Wells positive [%]” value is reported as “+ (<20% = +)”.

“66 (AMFPDTIPRV; listed as Homo sapiens) [compound 66]”: the “Peptide exchange” value with HLA-A*02:01 is on record as “++ (≧20% = ++)”. The “Wells positive [%]” value in assay [1] is reported as “+ (<20% = +)”.

With “34 (TLNTLDINL; listed as Homo sapiens) [compound 34]”, the “Peptide exchange” value in the assay with HLA-A*02:01 is listed as “+++ (≧50 = +++)”. Besides, the “Wells positive [%]” value in assay [1] is given as “++++ (>=70% = ++++)”.

“263 (SIIEYLPTL; listed as Homo sapiens) [compound 263]”: the “Peptide exchange” value with HLA-A*02:01 is given as “+++ (≧50 = +++)”. Further, in assay [1], the “Wells positive [%]” value is reported as “+ (<20% = +)”.

For “267 (YLLDMPLWYL; listed as Homo sapiens) [compound 267]”, the “Peptide exchange” value with HLA-A*02:01 is on record as “+++ (≧50 = +++)”. Besides, the “Wells positive [%]” value in assay [1] is listed as “+ (<20% = +)”.

For the substance “246 (ALAGIVTNV; listed as Homo sapiens) [compound 246]”, in the assay with HLA-A*02:01, the “Peptide exchange” value was “+++ (≧50 = +++)”. In addition, the “Wells positive [%]” value in assay [1] is reported as “+ (<20% = +)”.

Turning to “264 (TLHDQVHLL; listed as Homo sapiens) [compound 264]”, the “Peptide exchange” value with HLA-A*02:01 is listed as “++ (≧20% = ++)”. Moreover, the “Wells positive [%]” value in assay [1] is given as “+ (<20% = +)”.

For “101 (SLLEVNEASSV; listed as Homo sapiens) [compound 101]”, the “Peptide exchange” value with HLA-A*02:01 is “+++ (≧50 = +++)”. Further, in assay [1], the “Wells positive [%]” value is given as “+ (<20% = +)”.
